Measurements: PMC3913574

Target: T1, recombinant CADM1-EC-Fc protein consisting of the extracellular fragment domain of CADM1 fused to the Fc region of mouse IgG (UniProt Q9BY67)
T1 sequence: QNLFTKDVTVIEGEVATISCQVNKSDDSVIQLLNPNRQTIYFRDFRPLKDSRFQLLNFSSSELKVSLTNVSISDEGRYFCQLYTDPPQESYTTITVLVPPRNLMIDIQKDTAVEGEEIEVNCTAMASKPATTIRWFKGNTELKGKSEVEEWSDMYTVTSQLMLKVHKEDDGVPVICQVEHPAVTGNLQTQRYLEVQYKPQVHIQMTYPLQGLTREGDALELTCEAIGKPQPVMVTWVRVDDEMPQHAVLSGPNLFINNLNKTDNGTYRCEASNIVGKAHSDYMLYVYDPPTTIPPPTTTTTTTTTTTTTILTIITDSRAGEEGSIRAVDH

cell spreading assay: average surface area of MDCK+CADM1-GFP cells on CADM1-EC-Fc-coated glass against the same cells on control IgG: 1.8 fold
B1: CADM1-GFP on MDCK cells (MDCK+CADM1-GFP) (natural protein)
chain: QNLFTKDVTVIEGEVATISCQVNKSDDSVIQLLNPNRQTIYFRDFRPLKDSRFQLLNFSSSELKVSLTNVSISDEGRYFCQLYTDPPQESYTTITVLVPPRNLMIDIQKDTAVEGEEIEVNCTAMASKPATTIRWFKGNTELKGKSEVEEWSDMYTVTSQLMLKVHKEDDGVPVICQVEHPAVTGNLQTQRYLEVQYKPQVHIQMTYPLQGLTREGDALELTCEAIGKPQPVMVTWVRVDDEMPQHAVLSGPNLFINNLNKTDNGTYRCEASNIVGKAHSDYMLYVYDPPTTIPPPTTTTTTTTTTTTTILTIITDSRAGEEGSIRAVDHAVIGGVVAVVVFAMLCLLIILGRYFARHKGTYFTHEAKGADDAADADTAIINAEGGQNNSEEKKEYFI
